Results on 3 molecules are retold here after US20230203188A1 (published 2023).

Test [1] deals with T1, full-length cyno SIRPβ1 (XP_005568598, clone PA2), on CHO cells (cynomolgus monkey).
T1 construct: whole, on cells; also called Cynomolgus SIRPβ1 XP_005568598 Clone PA2
The test is described as follows: flow cytometry on CHO cells expressing the target. The protocol: (§1) Antibody binding to cells expressing full-length cynomolgus SIRPβ1 (XP_005568598) and SIRPβ1v3 (XP_005568593) is evaluated by flow cytometry. SIRPβ1- or SIRPβ31V3-expressing CHO cells are blocked with donkey IgG and incubated on ice with increasing concentrations of antibodies for 60 minutes, washed and stained with AF647-conjugated donkey F(ab′)₂ anti-human IgG secondary reagent. Cells are washed, fixed, and analyzed by flow cytometry. Median fluorescent intensity is determined and used as a measure of antibody binding.
(In general: A flow cytometer gives signals particle by particle.)

Test [2] concerns the target T2, full-length cyno SIRPβ1v3 (XP_005568593, clone 1HC6), on CHO cells (cynomolgus monkey, UniProt A0A2K5VYQ9).
T2 construct: whole, on cells; also called Cynomolgus SIRPβ1v3 XP-005568593 Clone 1HC6
T2 sequence: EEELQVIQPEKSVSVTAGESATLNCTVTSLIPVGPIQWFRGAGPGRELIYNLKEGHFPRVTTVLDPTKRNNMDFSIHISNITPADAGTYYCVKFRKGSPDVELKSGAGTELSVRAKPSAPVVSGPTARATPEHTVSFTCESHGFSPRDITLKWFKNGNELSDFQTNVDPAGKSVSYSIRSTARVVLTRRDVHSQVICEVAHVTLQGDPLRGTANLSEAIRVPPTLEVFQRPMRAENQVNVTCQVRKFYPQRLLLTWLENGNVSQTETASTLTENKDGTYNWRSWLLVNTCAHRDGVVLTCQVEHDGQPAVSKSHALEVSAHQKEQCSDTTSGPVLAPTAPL
The test is described as follows: flow cytometry on CHO cells expressing the target. The protocol: as §1

B1: Antibody A (antibody, human IgG1, kappa, L234A L235A)
heavy: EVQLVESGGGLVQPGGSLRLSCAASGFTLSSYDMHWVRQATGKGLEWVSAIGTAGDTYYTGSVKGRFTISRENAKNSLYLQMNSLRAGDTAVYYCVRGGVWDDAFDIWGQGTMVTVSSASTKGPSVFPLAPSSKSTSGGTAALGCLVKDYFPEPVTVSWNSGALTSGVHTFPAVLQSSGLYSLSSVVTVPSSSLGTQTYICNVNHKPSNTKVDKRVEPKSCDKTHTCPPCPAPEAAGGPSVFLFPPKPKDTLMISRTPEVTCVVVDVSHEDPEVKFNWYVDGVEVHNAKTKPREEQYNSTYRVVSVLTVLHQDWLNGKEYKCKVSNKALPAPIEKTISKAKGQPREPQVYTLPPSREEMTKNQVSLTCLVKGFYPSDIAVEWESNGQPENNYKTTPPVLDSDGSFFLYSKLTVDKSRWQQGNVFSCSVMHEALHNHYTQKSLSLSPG
light: DIQMTQSPSSLSASVGDRVTITCRASQDINNYLAWFQQKPGKAPKSLIYTASSLHSGVPSKFSGSGSGTDFTLTISSLQPEDFATYYCQQYVSYPYTFGQGTKLEIKRTVAAPSVFIFPPSDEQLKSGTASVVCLLNNFYPREAKVQWKVDNALQSGNSQESVTEQDSKDSTYSLSSTLTLSKADYEKHKVYACEVTHQGLSSPVTKSFNRGEC
notes: human IgG1 (LALA) backbone, kappa
For orientation: EC50 means the concentration at which the effect is half-maximal. Molecule B1 had a concentration for a half-maximal effect (EC50) in test [1] of 0.7 nM.

B2: Antibody A10 (antibody, human IgG1, kappa, L234A L235A)
heavy: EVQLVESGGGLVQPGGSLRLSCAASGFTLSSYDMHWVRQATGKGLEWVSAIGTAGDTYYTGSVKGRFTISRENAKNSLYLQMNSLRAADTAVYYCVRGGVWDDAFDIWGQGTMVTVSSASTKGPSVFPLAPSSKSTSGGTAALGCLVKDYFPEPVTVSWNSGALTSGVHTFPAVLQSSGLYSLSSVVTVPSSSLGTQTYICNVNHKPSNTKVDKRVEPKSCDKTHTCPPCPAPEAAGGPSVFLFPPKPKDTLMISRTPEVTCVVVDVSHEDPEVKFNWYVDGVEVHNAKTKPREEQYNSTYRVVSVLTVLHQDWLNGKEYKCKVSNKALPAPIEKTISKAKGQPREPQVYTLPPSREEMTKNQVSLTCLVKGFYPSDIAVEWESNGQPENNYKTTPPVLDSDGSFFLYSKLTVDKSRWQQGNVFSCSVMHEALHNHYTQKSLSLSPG
light: DIQMTQSPSSLSASVGDRVTITCRASQDINNYLAWFQQKPGKAPKSLIYTASSLHSGVPSKFSGSGSGTDFTLTISSLQPEDFATYYCQQYVSYPYTFGQGTKLEIKRTVAAPSVFIFPPSDEQLKSGTASVVCLLNNFYPREAKVQWKVDNALQSGNSQESVTEQDSKDSTYSLSSTLTLSKADYEKHKVYACEVTHQGLSSPVTKSFNRGEC
notes: engineered variant of Antibody A; IgG1 (LALA)
In test [1], B2 displayed an EC50 of 0.6 nM.

B3: KWAR23 (antibody, V domains shown)
VH: EVQLQQSGAELVKPGASVKLSCTASGFNIKDYYIHWVQQRTEQGLEWIGRIDPEDGETKYAPKFQDKATITADTSSNTAYLHLSSLTSEDTAVYYCARWGAYWGQGTLVTVSS
VL: QIVLTQSPAIMSASPGEKVTLTCSASSSVSSSYLYWYQQKPGSSPKLWIYSTSNLASGVPARFSGSGSGTSYSLTISSMEAEDAASYFCHQWSSYPRTFGAGTKLELK
Consider B3, for which the EC50 in test [2] was found to be 0.4 nM.
